The source of these data is publication PMC4022583, “The C-Terminal Random Coil Region Tunes the Ca^2+-Binding Affinity of S100A4 through Conformational Activation” (PLoS ONE, 2014).

Data set [1] concerns the target T1, S100A4Δ13 (C-terminal deletion mutant, residues 1-88) (human, UniProt P26447 1-88).
T1 construct: human S100A4, residues 1-88 (F89-K101 deleted); also called Δ13 mutant; Δ13 S100A4
In words: ITC; 75 µM S100A4Δ13 in the cell titrated with MPT at 25°C (298 K) in the presence of 1 mM CaCl2. The conditions noted are these: both partners purified.

Data set [2] concerns the molecule itself. In words: pulsed field gradient NMR diffusion; Ca2+-bound: same sample after addition of Ca2+ to 9 mM, 287 K; one and two components fitted for WT.

T1 sequence (P26447 1-88, stated change not applied): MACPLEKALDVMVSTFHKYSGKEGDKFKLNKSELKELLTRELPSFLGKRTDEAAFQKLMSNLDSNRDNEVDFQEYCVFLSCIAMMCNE

B1: NMIIA fragment MPT (Tyr-Arg1894-Lys1937) (peptide)
peptide: YRKLQRELEDATETADAMNREVSSLKNKLRRGDLPFVVPRRMARK
notes: extra N-terminal tyrosine, printed as 'Tyr-Arg1894-Lys1937'; non-muscle myosin IIA (NMIIA) heavy chain, residues Arg1894-Lys1937; also called MPT peptide; myosin IIA fragment; not shown: His10, N-terminal, cleaved; ubiquitin, N-terminal, cleaved
The Kd is the constant that tells how readily two partners part at equilibrium. With B1, in data set [1], the Kd was determined as 14.7 nM.

B2: S100A4 C-terminal deletion mutant (residues 1-88, Δ13) (domain or fragment)
chain: not shown
notes: also called Δ13 mutant; S100A4Δ13
As a reminder, the stoichiometry N is the number of molecules, sites or subunits per partner or assembly. With B2, the “stoichiometry N” value in data set [2] turned out to be 2.
